In the series the target is A3B-CTD (APOBEC3B C-terminal domain, wild type) (Homo sapiens, UniProt Q9UH17 187-382). The series can be described thus: NMR titration.

Results on one molecule are retold here after PMC4943463.

A3B-CTD (APOBEC3B C-terminal domain, wild type), sequence (Q9UH17 187-382): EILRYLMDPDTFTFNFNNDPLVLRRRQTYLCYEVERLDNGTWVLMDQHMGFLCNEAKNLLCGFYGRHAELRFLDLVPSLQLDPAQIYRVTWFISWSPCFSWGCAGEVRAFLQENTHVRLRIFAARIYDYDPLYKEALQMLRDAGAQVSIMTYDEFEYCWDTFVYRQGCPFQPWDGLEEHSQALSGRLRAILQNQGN

B1: 9-nt U-containing oligonucleotide ATTTUATTT (ssDNA)
DNA: ATTTUATTT
modifications: deoxyuridine at position 5 (DNA oligonucleotide, U in place of target C)
In general, Kd refers to a measure of binding affinity in units of concentration. B1 came in with a Kd of 119 ± 26 µM.
